Assay results as given in article PMC5665528, “Characterization of the deubiquitination activity and substrate specificity of the chicken ubiquitin-specific protease 1/USP associated factor 1 complex” (PLoS ONE, 2017).

Target: T1, chicken ubiquitin-specific protease 1, chUSP1^GG680,681AA double mutant (full-length control) (chicken, UniProt F1NPR3 1-794, G680A | G681A)
T1 sequence (looked up): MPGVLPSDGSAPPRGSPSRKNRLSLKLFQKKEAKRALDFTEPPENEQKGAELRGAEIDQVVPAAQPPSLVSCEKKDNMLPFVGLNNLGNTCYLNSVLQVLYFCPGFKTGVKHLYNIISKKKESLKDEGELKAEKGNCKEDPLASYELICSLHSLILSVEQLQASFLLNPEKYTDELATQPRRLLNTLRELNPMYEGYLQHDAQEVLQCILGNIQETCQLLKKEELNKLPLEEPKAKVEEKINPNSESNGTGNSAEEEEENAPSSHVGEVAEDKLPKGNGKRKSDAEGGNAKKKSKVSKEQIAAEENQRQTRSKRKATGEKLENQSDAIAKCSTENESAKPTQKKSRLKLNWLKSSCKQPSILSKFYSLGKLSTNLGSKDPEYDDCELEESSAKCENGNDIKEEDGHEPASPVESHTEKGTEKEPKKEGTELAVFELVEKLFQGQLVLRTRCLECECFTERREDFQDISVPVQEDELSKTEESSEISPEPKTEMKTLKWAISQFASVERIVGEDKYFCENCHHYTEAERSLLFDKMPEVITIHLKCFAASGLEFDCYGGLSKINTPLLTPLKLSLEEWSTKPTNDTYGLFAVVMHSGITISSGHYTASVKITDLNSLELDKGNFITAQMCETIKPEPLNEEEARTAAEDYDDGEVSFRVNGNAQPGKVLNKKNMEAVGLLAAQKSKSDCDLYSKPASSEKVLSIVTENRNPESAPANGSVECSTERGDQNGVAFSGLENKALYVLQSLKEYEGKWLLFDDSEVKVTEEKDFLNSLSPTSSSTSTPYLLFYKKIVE
Test: cell-based or functional assay

B1: chicken USP associated factor 1, untagged (natural protein)
chain: not shown
KM of chUSP1^FL (hydrolysis of Ub-AMC) in the presence of chUAF1 against chUSP1^FL alone, fold decrease: 2.87 fold | deubiquitination activity (kcat/KM, hydrolysis of Ub-AMC) of chUSP1^FL/chUAF1 against chUSP1^FL alone: 54 fold | deubiquitination activity of 125 nM chUSP1^FL (AMC fluorescence from 100 nM Ub-AMC) three minutes after the addition of 125 nM chUAF1, against the control without chUAF1: > 2 fold | kcat of chUSP1^FL (hydrolysis of Ub-AMC) in the presence of chUAF1 against chUSP1^FL alone: 21 fold
